Measured values: US20180119150A1

Target: FLT3 (human) (UniProt P36888)
Assay: cell-based or functional assay

UniProt P36888, sequence (P36888 27-993): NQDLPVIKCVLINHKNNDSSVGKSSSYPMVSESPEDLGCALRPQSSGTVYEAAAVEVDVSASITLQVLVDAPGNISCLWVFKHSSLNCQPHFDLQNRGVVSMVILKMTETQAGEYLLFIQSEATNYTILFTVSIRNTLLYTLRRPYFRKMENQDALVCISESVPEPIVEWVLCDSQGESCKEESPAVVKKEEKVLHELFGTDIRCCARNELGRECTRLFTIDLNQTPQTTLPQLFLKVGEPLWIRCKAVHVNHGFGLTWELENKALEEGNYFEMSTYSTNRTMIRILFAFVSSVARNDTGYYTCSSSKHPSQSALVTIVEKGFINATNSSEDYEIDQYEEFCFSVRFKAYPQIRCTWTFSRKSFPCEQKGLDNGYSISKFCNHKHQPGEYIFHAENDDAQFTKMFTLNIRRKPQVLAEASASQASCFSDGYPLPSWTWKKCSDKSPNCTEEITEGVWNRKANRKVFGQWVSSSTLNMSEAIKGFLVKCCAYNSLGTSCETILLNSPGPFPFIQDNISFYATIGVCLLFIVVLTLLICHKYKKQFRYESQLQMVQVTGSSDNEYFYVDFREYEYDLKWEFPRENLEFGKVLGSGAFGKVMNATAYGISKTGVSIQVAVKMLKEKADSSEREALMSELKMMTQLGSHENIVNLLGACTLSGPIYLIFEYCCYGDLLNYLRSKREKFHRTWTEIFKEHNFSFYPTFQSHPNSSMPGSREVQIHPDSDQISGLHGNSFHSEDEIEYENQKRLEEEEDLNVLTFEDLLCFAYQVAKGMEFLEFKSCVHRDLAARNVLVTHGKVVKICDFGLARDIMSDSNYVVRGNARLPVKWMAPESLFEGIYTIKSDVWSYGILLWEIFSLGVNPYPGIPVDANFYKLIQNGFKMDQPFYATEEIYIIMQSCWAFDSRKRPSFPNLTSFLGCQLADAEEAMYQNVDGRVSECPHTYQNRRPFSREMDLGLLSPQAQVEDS

one-hour uptake ratio | Substance
23.6% | FLT3L-conjugated Generation 7 (G7) PAMAM (G7-FLT3L) dendrimers (from UniProt P49771 27-181) (ligand)
5.9% | G7-H2B control nanoparticles
